Laboratory results taken from article PMC11804575.

Molecular target: heat shock protein 90 (HSP90) (UniProt P07900)
Assay: co-immunoprecipitation (anti-HA) with immunoblot quantification (ImageJ)
Settings: HEK293T cells; endogenous HSP90; n = 3; parent: est. 1.0; read off a plot

response (HSP90/HA-BRAF normalized to V600E): 12
Substance: BRAF^V600E (from UniProt P15056) R509H; 621APE-AAE
